Our source for the pKd values is PMC9482650, “Quantitative fragmentomics allow affinity mapping of interactomes” (Nature Communications, 2022).

Some targets named below: Q9H190; Q8TEW0; O60759; Q9ULJ8; Q9UDY2; Q6ZWJ1; O00233; Q96FS4; O75970; Q96SB3; Q96JB8; Q70Z35; Q12923; GIPC3, Q8TF64; Q9C0E4; Q9NR12; Q13368; Q96JY6; Q9P227; Q9NPB6; Q9Y3R0; O00560; Q92614.
Common to all, as to experiment: holdup assay
Design in all cases: key: below the threshold = too weak to quantify, mostly under pKd 3.1 to 4
Holding throughout (settings): plain residues with an end cap or a label only (N-terminal biotin on a linker: ttds)

The next assay has as its target T1, CNKSR1, Q969H4.
T1 sequence (Q969H4 191-295, limits assumed, looked up): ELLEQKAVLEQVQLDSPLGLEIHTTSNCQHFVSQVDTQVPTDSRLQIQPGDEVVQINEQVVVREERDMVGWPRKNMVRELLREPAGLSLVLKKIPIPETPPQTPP

The next assay concerns the target T2, INTU, Q9ULD6.
T2 sequence (Q9ULD6 180-273, limits assumed, looked up): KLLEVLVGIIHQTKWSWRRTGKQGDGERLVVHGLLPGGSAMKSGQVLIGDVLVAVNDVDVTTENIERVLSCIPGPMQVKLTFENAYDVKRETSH

The target of the next assay is T3, RGS12, O14924.
T3 sequence (O14924 17-108, limits assumed, looked up): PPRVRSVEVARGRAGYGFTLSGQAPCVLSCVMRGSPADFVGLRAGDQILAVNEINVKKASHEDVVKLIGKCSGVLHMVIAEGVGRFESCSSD

Another assay deals with T4, LNX2_1, Q8N448.
T4 sequence (Q8N448 228-328, limits assumed, looked up): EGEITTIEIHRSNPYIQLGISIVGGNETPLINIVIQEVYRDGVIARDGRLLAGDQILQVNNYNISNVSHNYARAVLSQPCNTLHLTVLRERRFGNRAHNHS

GIPC3, Q8TF64, sequence (Q8TF64 107-202): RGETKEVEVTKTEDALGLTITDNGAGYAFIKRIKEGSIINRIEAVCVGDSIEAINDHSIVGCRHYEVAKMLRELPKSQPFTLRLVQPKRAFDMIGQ

B1: PBK, Q96KB5 (peptide)
chain: HIVEALETDV
What is called pKd is the negative decadic logarithm of the Kd, by convention in mol/L. As to B1, the pKd entry with CNKSR1, Q969H4 is listed as “below the threshold”; in the assay with Q9H190, “below the threshold”; with Q8TEW0, “below the threshold”; with O60759 it was “below the threshold”; in the assay with Q9ULJ8, “below the threshold”; in the assay with Q9UDY2 it was “below the threshold”. Also, the pKd entry in the assay with Q6ZWJ1, in the assay with O00233, with Q96FS4, with O75970, with Q96SB3 and in the assay with Q96JB8 was “below the threshold” in each case. Also, the pKd result in the assay with Q70Z35 was “below the threshold”; with Q12923 it was “below the threshold”; with INTU, Q9ULD6, 4.9; in the assay with GIPC3, Q8TF64, “below the threshold”; with Q9C0E4, “below the threshold”; with Q9NR12 it was “below the threshold”. Moreover, the pKd entry is “below the threshold” with Q13368; “below the threshold” with Q96JY6; “below the threshold” with RGS12, O14924; “below the threshold” with Q9P227; “below the threshold” with Q9NPB6; “below the threshold” with Q9Y3R0. In addition, the pKd entry with O00560 was “below the threshold”.

B2: KCNA5, P22460 (peptide)
chain: CLDTSRETDL
Regarding B2, the pKd entry with CNKSR1, Q969H4 is recorded as “below the threshold”; in the assay with Q9H190, “below the threshold”; in the assay with Q8TEW0, “below the threshold”; in the assay with O60759, “below the threshold”; with Q9ULJ8, “below the threshold”; with Q9UDY2, “below the threshold”. Also, the pKd entry with Q6ZWJ1, with O00233, with Q96FS4, with O75970, with Q96SB3 and in the assay with Q96JB8 was “below the threshold” throughout. The pKd result in the assay with Q70Z35 is reported as “below the threshold”; with Q12923, “below the threshold”; with Q92614, “below the threshold”; with GIPC3, Q8TF64 it was “below the threshold”; with Q9C0E4, “below the threshold”; with Q9NR12, “below the threshold”. The pKd result in the assay with Q13368 is given as “below the threshold”; in the assay with Q96JY6, “below the threshold”; with RGS12, O14924 it was “below the threshold”; with Q9P227, “below the threshold”; in the assay with Q9NPB6, “below the threshold”; with Q9Y3R0, “below the threshold”. Also, in the assay with O00560, the pKd result is “below the threshold”.

B3: PTEN, P60484 (peptide)
chain: DEDQHTQITKV
For B3, the pKd result with LNX2_1, Q8N448 is listed as “below the threshold”; in the assay with INTU, Q9ULD6 it was “below the threshold”.
